Data on four molecules can be found in article PMC10397247.

In one experiment the target is T1, 4H932-bH.
T1 chain: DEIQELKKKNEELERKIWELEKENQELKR
The experiment can be described thus: two-hybrid library CCNG1.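 Also: natural log of median RNA to DNA barcode read ratio; higher means stronger binding.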

Another experiment addresses T2, 4H796-bH.
T2 chain: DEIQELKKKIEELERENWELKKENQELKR
The experiment can be described thus: two-hybrid library CCNG1.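 Also: natural log of median RNA to DNA barcode read ratio; higher means stronger binding.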

The target of another experiment is T3, 4H949-bH.
T3 chain: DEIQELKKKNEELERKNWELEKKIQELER
The experiment can be described thus: two-hybrid library CCNG1.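 Also: natural log of median RNA to DNA barcode read ratio; higher means stronger binding.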

A further experiment addresses T4, 4H492-bA.
T4 chain: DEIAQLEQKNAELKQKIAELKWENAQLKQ
The experiment can be described thus: two-hybrid library CCNG1.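 Also: natural log of median RNA to DNA barcode read ratio; higher means stronger binding.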

The target of a further experiment is T5, 4H741-bA.
T5 chain: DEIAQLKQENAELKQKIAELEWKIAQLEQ
The experiment can be described thus: two-hybrid library CCNG1.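 Also: natural log of median RNA to DNA barcode read ratio; higher means stronger binding.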

Another experiment has as its target T6, 4H492-bN.
T6 chain: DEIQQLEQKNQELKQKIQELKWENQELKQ
The experiment can be described thus: two-hybrid library CCNG1.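 Also: natural log of median RNA to DNA barcode read ratio; higher means stronger binding.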

Another experiment addresses T7, 4H741-bN.
T7 chain: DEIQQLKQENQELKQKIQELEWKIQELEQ
The experiment can be described thus: two-hybrid library CCNG1.

In a further experiment the target is T8, 4H477-bN.
T8 chain: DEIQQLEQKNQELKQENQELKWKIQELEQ
The experiment can be described thus: two-hybrid library CCNG1.

Another experiment has as its target T9, 4H932-bN.
T9 chain: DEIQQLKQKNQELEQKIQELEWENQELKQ
The experiment can be described thus: two-hybrid library CCNG1.

For another experiment, the target named is T10, 4H3777-AA.
T10 chain: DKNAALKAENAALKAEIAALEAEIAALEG
The experiment can be described thus: two-hybrid library CCmax. The following applies: mean of both orientations.

For another experiment, the target named is T11, 4H432-AA.
T11 chain: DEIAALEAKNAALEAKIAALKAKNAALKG
The experiment can be described thus: two-hybrid library CCmax. The following applies: mean of both orientations.

A further experiment has as its target T12, 4H380-AA.
T12 chain: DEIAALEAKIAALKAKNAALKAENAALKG
The experiment can be described thus: two-hybrid library CCmax. The following applies: mean of both orientations.

A further experiment has as its target T13, 4H3974-AA.
T13 chain: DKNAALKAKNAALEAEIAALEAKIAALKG
The experiment can be described thus: two-hybrid library CCmax. The following applies: mean of both orientations.

For another experiment, the target named is T14, 4H446-AA.
T14 chain: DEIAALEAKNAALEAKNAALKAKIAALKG
The experiment can be described thus: two-hybrid library CCmax. The following applies: mean of both orientations.

The target of another experiment is T15, 4H3619-AA.
T15 chain: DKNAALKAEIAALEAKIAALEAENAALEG
The experiment can be described thus: two-hybrid library CCmax. The following applies: mean of both orientations.

The target in a further experiment is T16, 4H341-AA.
T16 chain: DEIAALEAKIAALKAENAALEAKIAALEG
The experiment can be described thus: two-hybrid library CCmax. The following applies: mean of both orientations.

A further experiment concerns the target T17, 4H3449-AA.
T17 chain: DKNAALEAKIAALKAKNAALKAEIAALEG
The experiment can be described thus: two-hybrid library CCmax. The following applies: mean of both orientations.

The target in another experiment is T18, 4H3629-AA.
T18 chain: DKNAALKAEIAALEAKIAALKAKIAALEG
The experiment can be described thus: two-hybrid library CCmax. The following applies: mean of both orientations.

The target of a further experiment is T19, 4H3915-AA.
T19 chain: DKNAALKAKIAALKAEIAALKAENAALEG
The experiment can be described thus: two-hybrid library CCmax. The following applies: mean of both orientations.

The next experiment deals with T20, 4H324-AA.
T20 chain: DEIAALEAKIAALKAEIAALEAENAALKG
The experiment can be described thus: two-hybrid library CCmax.

In the next experiment the target is T21, 4H63-AA.
T21 chain: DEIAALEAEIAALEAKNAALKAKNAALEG
The experiment can be described thus: two-hybrid library CCmax. The following applies: mean of both orientations.

For DEIQELKKKIEELERENWELKKENQELKR [4H796-bH], the interaction score was -0.89 with 4H932-bH, 1.25 in the experiment with 4H796-bH and -0.00426 in the experiment with 4H949-bH.
Consider DEIAQLEQKNAELKQKIAELKWENAQLKQ [4H492-bA], for which the figures for the interaction score with 4H492-bA and with 4H741-bA were -0.566 and -1.59, respectively.
As to DEIQQLEQKNQELKQENQELKWKIQELEQ [4H477-bN], the interaction score is -0.94 with 4H492-bN, -1.17 with 4H741-bN, -1.14 with 4H477-bN and -0.0984 with 4H932-bN.
With DEIAALEAKIAALKAEIAALEAENAALKG [4H324-AA], the interaction score is -1.37 in the experiment with 4H3777-AA; -0.834 in the experiment with 4H432-AA; 0.833 with 4H380-AA; 1.2 with 4H3974-AA; -1.06 with 4H446-AA; 1.47 in the experiment with 4H3619-AA. Also, the interaction score was -0.39 in the experiment with 4H341-AA; -1.69 in the experiment with 4H3449-AA; 1.36 with 4H3629-AA; 0.128 with 4H3915-AA; 1.11 in the experiment with 4H324-AA; -0.0237 with 4H63-AA.
